Bridges are numbered along the chain shown (N, C = ends). Where no end group is shown, it is not given here.
Target: T1, Her2 (UniProt P04626 23-652, limits assumed)
T1 construct: also called Her2/neu; Neu
Experiment: method not stated; affinity for Her2

For FCDGFYACYMDV (disulfide 2-8 (inferred), also called anti-Her2 peptide) [AHNP peptide], the Kd was 350 nM.
